The source of these data is article PMC5884298.

The target of the data set is thrombin (UniProt P00734;P00734 328-363;364-622). In words: SERS mapping on gold nanopillars; thrombin 0.0873-87.3 nM; complex bands 822, 1140, 1558 cm-1; no Kd given; Thiolated aptamer on gold-coated Si nanopillars, MCH passivation (stated for quadruplex control); PBS pH 7.4 listed; thrombin incubation buffer and temperature.

As for GGTTGGTGTGGTTGG (structured_DNA, 5'-HS-(CH2)6 thiol linker (printed HS-(CH2)5-CH2-D/)) [TBA15 (thiolated thrombin-binding aptamer)], the binding result is listed as “binds”.
